Where “and” joins values, the source holds several entries; their conditions need not be identical. Equal values may be shown once.
Key:
REGγ(K188F) = REGγ(K188F) (UniProt P61289)
REGγ(K188E) = REGγ(K188E) (UniProt P61289)
REGγ(K188P) = REGγ(K188P) (UniProt P61289)
REGγ (wild-type) = REGγ (wild-type) (UniProt P61289)
REGα/β = REGα/β (UniProt Q06323)
REGγ(K188R) = REGγ(K188R) (UniProt P61289)
REGγ(K188C) = REGγ(K188C) (UniProt P61289)
REGγ(K188I) = REGγ(K188I) (UniProt P61289)
REGγ(K188N) = REGγ(K188N) (UniProt P61289)
REGγ(K188S) = REGγ(K188S) (UniProt P61289)
REGγ(K188A) = REGγ(K188A) (UniProt P61289)
REGγ(K188D) = REGγ(K188D) (UniProt P61289)
REGγ(K188H) = REGγ(K188H) (UniProt P61289)
REGα = REGα (UniProt Q06323)
REGγ(K188Q) = REGγ(K188Q) (UniProt P61289)
Chain of REGγ(K188Q) (P61289 whole entry K188Q): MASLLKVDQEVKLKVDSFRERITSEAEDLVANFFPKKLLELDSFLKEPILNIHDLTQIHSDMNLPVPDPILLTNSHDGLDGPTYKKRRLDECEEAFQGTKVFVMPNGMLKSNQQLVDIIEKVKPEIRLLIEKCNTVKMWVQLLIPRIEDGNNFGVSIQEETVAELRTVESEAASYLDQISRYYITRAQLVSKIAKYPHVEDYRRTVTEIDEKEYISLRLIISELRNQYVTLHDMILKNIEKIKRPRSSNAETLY

Chain of REGα (Q06323 whole entry): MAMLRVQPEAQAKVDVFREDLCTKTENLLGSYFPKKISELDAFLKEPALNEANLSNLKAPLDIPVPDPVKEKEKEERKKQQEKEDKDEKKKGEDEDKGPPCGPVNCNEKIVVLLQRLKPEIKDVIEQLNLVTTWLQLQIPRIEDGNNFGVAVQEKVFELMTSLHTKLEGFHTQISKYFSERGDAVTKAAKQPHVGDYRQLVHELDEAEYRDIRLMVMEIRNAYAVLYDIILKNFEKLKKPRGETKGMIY
Chain of REGα/β (Q06323 whole entry, chain 1 of 2): as the sequence (Q06323 whole entry) above
Chain of REGα/β (chain, as listed by the source, chain 2 of 2): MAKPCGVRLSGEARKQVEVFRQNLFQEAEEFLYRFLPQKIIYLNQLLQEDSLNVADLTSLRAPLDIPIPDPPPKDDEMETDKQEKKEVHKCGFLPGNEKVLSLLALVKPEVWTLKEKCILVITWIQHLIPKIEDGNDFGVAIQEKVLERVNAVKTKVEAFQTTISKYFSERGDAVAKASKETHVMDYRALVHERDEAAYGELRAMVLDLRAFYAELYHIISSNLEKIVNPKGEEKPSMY
Chain of REGγ(K188C) (P61289 whole entry K188C): as the sequence (P61289 whole entry K188Q) above, with Q188C counted along it
Chain of REGγ(K188D) (P61289 whole entry K188D): as the sequence (P61289 whole entry K188Q) above, with Q188D counted along it
Chain of REGγ(K188R) (P61289 whole entry K188R): as the sequence (P61289 whole entry K188Q) above, with Q188R counted along it
Chain of REGγ(K188I) (P61289 whole entry K188I): as the sequence (P61289 whole entry K188Q) above, with Q188I counted along it
Chain of REGγ(K188S) (P61289 whole entry K188S): as the sequence (P61289 whole entry K188Q) above, with Q188S counted along it
Chain of REGγ(K188N) (P61289 whole entry K188N): as the sequence (P61289 whole entry K188Q) above, with Q188N counted along it
Chain of REGγ (wild-type) (P61289 whole entry): as the sequence (P61289 whole entry K188Q) above, with Q188K counted along it
Chain of REGγ(K188E) (P61289 whole entry K188E): as the sequence (P61289 whole entry K188Q) above, with Q188E counted along it
Chain of REGγ(K188A) (P61289 whole entry K188A): as the sequence (P61289 whole entry K188Q) above, with Q188A counted along it
Chain of REGγ(K188F) (P61289 whole entry K188F): as the sequence (P61289 whole entry K188Q) above, with Q188F counted along it
Chain of REGγ(K188H) (P61289 whole entry K188H): as the sequence (P61289 whole entry K188Q) above, with Q188H counted along it
Chain of REGγ(K188P) (P61289 whole entry K188P): as the sequence (P61289 whole entry K188Q) above, with Q188P counted along it

With “20S proteasome (human red blood cell proteasomes)” the Stimulation of cleavage (x-fold), LLE-βNA (REGγ(K188F)) was 4 x-fold, the Stimulation of cleavage (x-fold), LLVY-MCA (REGγ(K188F)) was 4 x-fold and the Stimulation of cleavage (x-fold), LRR-MCA (REGγ(K188F)) was 13 x-fold. For the same substance, the % Degraded, substrate F1-EPQPQ (SEQ ID NO: 15), 5 hr (REGγ(K188E)) was 80%, the % Degraded, substrate F1-KSQPQ (SEQ ID NO: 16), 5 hr (REGγ(K188E)) was 80% and the % Degraded, substrate F1-QHQ, 5 hr (REGγ(K188E)) was 50%. The % Degraded, substrate F1-QPQ, 5 hr (REGγ(K188E)) was 50%, the % Degraded, substrate F1-QQQ, 5 hr (REGγ(K188E)) was > 95% and the Stimulation of cleavage (x-fold), AAF-MCA (REGγ(K188E)) was 4 x-fold. The Stimulation of cleavage (x-fold), DEVD(SEQ ID NO: 8)-MCA (REGγ(K188E)) was 8 x-fold, the Stimulation of cleavage (x-fold), FSR-MCA (REGγ(K188E)) was 7 x-fold and the Stimulation of cleavage (x-fold), IEGR(SEQ ID NO: 5)-MCA (REGγ(K188E)) was 2 x-fold. It also gave a Stimulation of cleavage (x-fold), IETD(SEQ ID NO: 6)-MCA (REGγ(K188E)) of 21 x-fold, a Stimulation of cleavage (x-fold), LGHD(SEQ ID NO: 7)-MCA (REGγ(K188E)) of 10 x-fold and a Stimulation of cleavage (x-fold), LLE-βNA (REGγ(K188E)) of 9 x-fold. It also gave a Stimulation of cleavage (x-fold), LLVY(SEQ ID NO: 1)-MCA (REGγ(K188E)) of 14 x-fold, a Stimulation of cleavage (x-fold), LLVY-MCA (REGγ(K188E)) of 14 x-fold and a Stimulation of cleavage (x-fold), LRR-MCA (REGγ(K188E)) of 15 x-fold. It also gave a Stimulation of cleavage (x-fold), LY-MCA (REGγ(K188E)) of 3 x-fold, a Stimulation of cleavage (x-fold), VLK-MCA (REGγ(K188E)) of 6 x-fold and a Stimulation of cleavage (x-fold), YVAD(SEQ ID NO: 9)-MCA (REGγ(K188E)) of 7 x-fold. The “hydrolysis of the 21-residue peptide P21 by the proteasome (HPLC)” value (“hydrolysis of the 21-residue peptide P21” for short) (REGγ(K188E)) was “REGγ(K188E or D) and REGα markedly increased sunstrate consumption”, the Stimulation of cleavage (x-fold), LLE-βNA (REGγ(K188P)) was 1 x-fold and the Stimulation of cleavage (x-fold), LLVY-MCA (REGγ(K188P)) was 1 x-fold. It also gave a Stimulation of cleavage (x-fold), LRR-MCA (REGγ(K188P)) of 12 x-fold, a % Degraded, substrate F1-EPQPQ (SEQ ID NO: 15), 5 hr (REGγ (wild-type)) of 5% and a % Degraded, substrate F1-KSQPQ (SEQ ID NO: 16), 5 hr (REGγ (wild-type)) of 15%. The % Degraded, substrate F1-QHQ, 5 hr (REGγ (wild-type)) was 5%, the % Degraded, substrate F1-QPQ, 5 hr (REGγ (wild-type)) was 5% and the % Degraded, substrate F1-QQQ, 5 hr (REGγ (wild-type)) was 15%. The Stimulation of cleavage (x-fold), AAF-MCA (REGγ (wild-type)) was 1 x-fold, the Stimulation of cleavage (x-fold), DEVD(SEQ ID NO: 8)-MCA (REGγ (wild-type)) was 2 x-fold and the Stimulation of cleavage (x-fold), FSR-MCA (REGγ (wild-type)) was 7 x-fold. The Stimulation of cleavage (x-fold), IEGR(SEQ ID NO: 5)-MCA (REGγ (wild-type)) was 1 x-fold, the Stimulation of cleavage (x-fold), IETD(SEQ ID NO: 6)-MCA (REGγ (wild-type)) was 1 x-fold and the Stimulation of cleavage (x-fold), LGHD(SEQ ID NO: 7)-MCA (REGγ (wild-type)) was 1 x-fold. The Stimulation of cleavage (x-fold), LLE-βNA (REGγ (wild-type)) was 0.6 x-fold, the Stimulation of cleavage (x-fold), LLVY(SEQ ID NO: 1)-MCA (REGγ (wild-type)) was 0.4 x-fold and the Stimulation of cleavage (x-fold), LLVY-MCA (REGγ (wild-type)) was 0.4 x-fold. For the same substance, the Stimulation of cleavage (x-fold), LRR-MCA (REGγ (wild-type)) was 12 x-fold and 11 x-fold, the Stimulation of cleavage (x-fold), LY-MCA (REGγ (wild-type)) was 2 x-fold and the Stimulation of cleavage (x-fold), VLK-MCA (REGγ (wild-type)) was 5 x-fold. For the same substance, the Stimulation of cleavage (x-fold), YVAD(SEQ ID NO: 9)-MCA (REGγ (wild-type)) was 0.9 x-fold, the “hydrolysis of the 21-residue peptide P21” value (REGγ (wild-type)) was “Wild-type REGγ decreased hydrolysis of P21 by the proteasome” and the % Degraded, substrate F1-EPQPQ (SEQ ID NO: 15), 5 hr (REGα/β) was 55%. It also gave a % Degraded, substrate F1-KSQPQ (SEQ ID NO: 16), 5 hr (REGα/β) of 85%, a % Degraded, substrate F1-QHQ, 5 hr (REGα/β) of 80% and a % Degraded, substrate F1-QPQ, 5 hr (REGα/β) of 85%. For the same substance, the % Degraded, substrate F1-QQQ, 5 hr (REGα/β) was 85%, the Stimulation of cleavage (x-fold), LLE-βNA (REGγ(K188R)) was 0.7 x-fold and the Stimulation of cleavage (x-fold), LLVY-MCA (REGγ(K188R)) was 0.7 x-fold. It also gave a Stimulation of cleavage (x-fold), LRR-MCA (REGγ(K188R)) of 10 x-fold, a Stimulation of cleavage (x-fold), LLE-βNA (REGγ(K188C)) of 5 x-fold and a Stimulation of cleavage (x-fold), LLVY-MCA (REGγ(K188C)) of 6 x-fold. It also gave a Stimulation of cleavage (x-fold), LRR-MCA (REGγ(K188C)) of 13 x-fold, a Stimulation of cleavage (x-fold), LLE-βNA (REGγ(K188I)) of 3 x-fold and a Stimulation of cleavage (x-fold), LLVY-MCA (REGγ(K188I)) of 2 x-fold. It also gave a Stimulation of cleavage (x-fold), LRR-MCA (REGγ(K188I)) of 12 x-fold, a Stimulation of cleavage (x-fold), LLE-βNA (REGγ(K188N)) of 5 x-fold and a Stimulation of cleavage (x-fold), LLVY-MCA (REGγ(K188N)) of 5 x-fold. For the same substance, the Stimulation of cleavage (x-fold), LRR-MCA (REGγ(K188N)) was 14 x-fold, the Stimulation of cleavage (x-fold), LLE-βNA (REGγ(K188S)) was 3 x-fold and the Stimulation of cleavage (x-fold), LLVY-MCA (REGγ(K188S)) was 3 x-fold. The Stimulation of cleavage (x-fold), LRR-MCA (REGγ(K188S)) was 14 x-fold, the Stimulation of cleavage (x-fold), LLE-βNA (REGγ(K188A)) was 6 x-fold and the Stimulation of cleavage (x-fold), LLVY-MCA (REGγ(K188A)) was 6 x-fold. The Stimulation of cleavage (x-fold), LRR-MCA (REGγ(K188A)) was 13 x-fold, the Stimulation of cleavage (x-fold), AAF-MCA (REGγ(K188D)) was 4 x-fold and the Stimulation of cleavage (x-fold), DEVD(SEQ ID NO: 8)-MCA (REGγ(K188D)) was 9 x-fold. The Stimulation of cleavage (x-fold), FSR-MCA (REGγ(K188D)) was 7 x-fold, the Stimulation of cleavage (x-fold), IEGR(SEQ ID NO: 5)-MCA (REGγ(K188D)) was 2 x-fold and the Stimulation of cleavage (x-fold), IETD(SEQ ID NO: 6)-MCA (REGγ(K188D)) was 26 x-fold. For the same substance, the Stimulation of cleavage (x-fold), LGHD(SEQ ID NO: 7)-MCA (REGγ(K188D)) was 11 x-fold, the Stimulation of cleavage (x-fold), LLE-βNA (REGγ(K188D)) was 9 x-fold and the Stimulation of cleavage (x-fold), LLVY(SEQ ID NO: 1)-MCA (REGγ(K188D)) was 14 x-fold. For the same substance, the Stimulation of cleavage (x-fold), LLVY-MCA (REGγ(K188D)) was 14 x-fold, the Stimulation of cleavage (x-fold), LRR-MCA (REGγ(K188D)) was 15 x-fold and the Stimulation of cleavage (x-fold), LY-MCA (REGγ(K188D)) was 3 x-fold. For the same substance, the Stimulation of cleavage (x-fold), VLK-MCA (REGγ(K188D)) was 6 x-fold, the Stimulation of cleavage (x-fold), YVAD(SEQ ID NO: 9)-MCA (REGγ(K188D)) was 8 x-fold and the “hydrolysis of the 21-residue peptide P21” value (REGγ(K188D)) was “REGγ(K188E or D) and REGα markedly increased sunstrate consumption”. The Stimulation of cleavage (x-fold), LLE-βNA (REGγ(K188H)) was 4 x-fold, the Stimulation of cleavage (x-fold), LLVY-MCA (REGγ(K188H)) was 5 x-fold and the Stimulation of cleavage (x-fold), LRR-MCA (REGγ(K188H)) was 14 x-fold. For the same substance, the Stimulation of cleavage (x-fold), AAF-MCA (REGα) was 6 x-fold, the Stimulation of cleavage (x-fold), DEVD(SEQ ID NO: 8)-MCA (REGα) was 10 x-fold and the Stimulation of cleavage (x-fold), FSR-MCA (REGα) was 10 x-fold. For the same substance, the Stimulation of cleavage (x-fold), IEGR(SEQ ID NO: 5)-MCA (REGα) was 3 x-fold, the Stimulation of cleavage (x-fold), IETD(SEQ ID NO: 6)-MCA (REGα) was 30 x-fold and the Stimulation of cleavage (x-fold), LGHD(SEQ ID NO: 7)-MCA (REGα) was 11 x-fold. The Stimulation of cleavage (x-fold), LLE-βNA (REGα) was 9 x-fold, the Stimulation of cleavage (x-fold), LLVY(SEQ ID NO: 1)-MCA (REGα) was 16 x-fold and the Stimulation of cleavage (x-fold), LLVY-MCA (REGα) was 16 x-fold. The Stimulation of cleavage (x-fold), LRR-MCA (REGα) was 16 x-fold, the Stimulation of cleavage (x-fold), LY-MCA (REGα) was 5 x-fold and the Stimulation of cleavage (x-fold), VLK-MCA (REGα) was 7 x-fold. The Stimulation of cleavage (x-fold), YVAD(SEQ ID NO: 9)-MCA (REGα) was 9 x-fold, the “hydrolysis of the 21-residue peptide P21” value (REGα) was “REGγ(K188E or D) and REGα markedly increased sunstrate consumption” and the Stimulation of cleavage (x-fold), LLE-βNA (REGγ(K188Q)) was 5 x-fold. It also gave a Stimulation of cleavage (x-fold), LLVY-MCA (REGγ(K188Q)) of 5 x-fold and a Stimulation of cleavage (x-fold), LRR-MCA (REGγ(K188Q)) of 14 x-fold.

Reference: patent US20040233833
